{
  "source": "patent US20250302761A1",
  "about": "(INSTITUT NATIONAL DE LA SANT ET DE LA RECHERCHE M DICALE, published 2025)",
  "target": "FKBP2-RFP-CD63",
  "experiment": "cell-based or functional assay",
  "data": [
    {"binder": "FRB-NanoLuciferase-HA (other) ILWHEMWHEGLEEASRLYFGERNVKGMFEVLEPLHAMMERGPQTLKETSFNQAYGRDLMEAQEWCRKYMKSGNVKDLLQAWDLYYHVFRRISK", "values": [
      {"measurement": "EV NLuc specific activity, normalized on the 'No Drug' condition", "result": 3.5, "unit": "fold"},
      {"measurement": "NLuc activity in Fraction 7 of the floatation assay, 'Drug' against 'No Drug'", "result": 4, "unit": "fold"}
    ]}
  ]
}
